# According to US20080132445A1, “Method for Inducing Mammary Epithelial Cell Differentiation” (Garvan Institute of Medical Reserach, priority 2002, published 2008):
# B1: PRL: prolactin; ovine PRL (Sigma, 1 μg/ml) in culture, unmodified Prl by mini-osmotic pump in mice (protein, UniProt P01240 31-229, looked up)
# Prolactin: TPVCPNGPGNCQVSLRDLFDRAVMVSHYIHNLSSEMFNEFDKRYAQGKGFITMALNSCHTSSLPTPEDKEQAQQTHHEVLMSLILGLLRSWNDPLYHLVTEVRGMKGVPDAILSRAIEIEEENKRLLEGMEMIFGQVIPGAKETEPYPVWSGLPSLQTKDEDARHSAFYNLLHCLRRDSSKIDTYLKLLNCRIIYNNNC
# Legend:
# [1] = tested on: galanin expression (galanin promoter estrogen response element); settings: Howard et al 1997; Kaplan et al 1988; cited from earlier work
# GalR1 = settings: stated as known; cited from earlier work
# Akt = assay: Western analysis of cultured mammary glands: PI3 kinase pathway; assay type: cell-based, mice; settings: western blot
# Procedure: (§1) Four week old BALB/c mice were implanted with estrogen, progesterone and cholesterol pellets (Ginsburg and Vonderhaar, 2000). Following nine days of treatment, the whole fourth glands were removed and stretched onto siliconized lens paper and placed into petri dishes containing 2 mL of Waymouths 152/1 medium supplemented with penicillin (100 U/ml), streptomycin (100 μg/ml), gentamycin sulfate (50 μg/ml), 20 mM HEPES, insulin (5 μg/ml), hydrocortisone (100 ng/ml) and aldosterone (100 ng/ml) (basal medium, IAH) to monitor ductal side branching, with and without 100 nM rat galanin (Auspep). To assess lobuloalveolar development ovine PRL (Sigma, 1 μg/ml) was added to the basal medium with or without galanin. Glands were maintained in a tri-gas incubator at 50% O2 and 5% CO2 in air. Medium was changed after 24 hr, then every second day for 6 days before morphology and histology were assessed.
# Following RNA extraction from mammary glands using TRIZOL Reagent (Gibco BRL), protein was extracted following the manufacturer's instructions. Protein was separated using SDS-PAGE (Bio-Rad Laboratories), transferred to PVDF (Millipore) and blocked overnight with 5% skim milk powder, 2% fetal bovine serum, 50 mM sodium phosphate, 50 mM NaCl and 0.1% Tween 20. Membranes were incubated with one of the following primary antibodies: α-milk protein (Accurate Chemical & Scientific Corporation), α-STAT5a (Upstate Biotech), α-phospho-STAT5, α-phospho-Erk1/2, α-Erk2, α-phospho-Akt (S473), α-phospho-Akt (T308), α-Akt (Cell Signaling Technology) or α-β-Actin (Sigma). 20 μg of protein was loaded per lane except for α-milk protein were 400 ng of protein was loaded. Specific binding was detected using Horseradish peroxidase conjugated secondary antibodies (Amersham Biosciences) with Chemiluminescence Reagent (PerkinElmer) and Biomax Light Film (Eastman Kodak Company).
# STAT5 = assay: Western analysis of cultured mammary glands: JAK/STAT pathway; assay type: cell-based, mice; settings: western blot
# Procedure: as §1
# (§2) Following RNA extraction from mammary glands using TRIZOL Reagent (Gibco BRL), protein was extracted following the manufacturer's instructions. […] Specific binding was detected using Horseradish peroxidase conjugated secondary antibodies (Amersham Biosciences) with Chemiluminescence Reagent (PerkinElmer) and Biomax Light Film (Eastman Kodak Company).
# [2] = tested on: mammary glands (lobuloalveolar development); assay: Mammary gland whole organ culture, morphology and histology; assay type: cell-based, BALB/c mice
# Procedure: (§3) Mammary whole mounts were made by spreading the gland on a glass slide and fixing in 10% formalin solution. Glands were defatted in acetone before carmine alum (0.2% carmine, 0.5% aluminium sulfate) staining overnight. The whole mount was dehydrated using a graded ethanol series followed by xylene treatment for 60 min and storage and photography in methyl salicylate. Morphometric analysis was performed by counting the number of side branches, alveolar buds or lobuloalveoli per mammary gland (n=5) for mammary gland cultures or from 4 representative fields of view from whole 4th inguinal glands.
# as §1, with “To assess lobuloalveolar development ovine PRL (Sigma, 1 μg/ml) was added to the basal medium with or without galanin. Glands were maintained in a tri-gas incubator at 50% O2 and 5% CO2 in air.” left out
# [3] = tested on: Gal−/− mice mammary gland; assay: Prl treatment of Gal−/− mice throughout pregnancy (mini-osmotic pump); assay type: in vivo, mouse
# Procedure: as §3
# On the morning of the observation of a vaginal plug, 6-8 week old mice were implanted with a 0.25 μl per hour, 28 day mini-osmotic pump (Alzet) containing unmodified Prl prepared as described (23). Either 0.6 or 1.2 μg were delivered per 24 hr. On the first day post-partum maternal behaviour of mothers was observed, pups were examined for the presence of milk and glands were taken for histological analysis.
# (§4) Quantitative PCR was performed using LightCycler technology (Roche). Primers were designed on the basis of mismatch to other genes for WDMN1, β-Actin, WAP, β-casein, […], Elf5, Glycam1, IGF1, GHR, SPOT 14 and PRLR. PCR reactions were performed in 10 μL volume with 1 μL of cDNA, 5 pmoles of each primer and FastStart DNA Master SYBR Green I enzyme mix (Roche) as per manufacturers instructions. Relative quantitation of the product was performed by comparing the crossing points of different samples normalised to an internal control (β-Actin). Each cycle in the linear phase of the reaction corresponds to a two fold difference in transcript levels between samples. Each reaction was performed in triplicate using pooled RNA from the 4-6 mammary glands or the treatment groups utilised for transcript profiling.
# [4] = tested on: milk proteins (WAP, α-casein, β-casein); assay: Western analysis of cultured mammary glands: milk protein expression; assay type: cell-based, mice; settings: western blot
# Procedure: as §1, §2
# [5] = tested on: mammary gland gene expression; assay: Transcript profiling of cultured mammary glands (Affymetrix MGU74Av2 GeneChips); assay type: cell-based, mice
# Procedure: as §1
# Total RNA was extracted using TRIZOL Reagent (Gibco BRL), purified using RNeasy Mini Kit (QIAGEN), cDNA synthesis performed using Superscript II (Invitrogen Life Technologies), synthesis of Biotin-labeled cRNA performed using BioArray HighYield RNA Transcript labeling Kit (Enzo Diagnostics) and hybridised to Affymetrix MGU74v2 GeneChips overnight as per manufacturers instructions. Arrays were performed in duplicate using 4-6 glands per treatment group from two separate replicate experiments. Analysis was performed using the Affymetrix GeneChip v5 software (MAS 5), with treatment groups compared back to IAH treatment as the baseline comparison. Principal Components Analysis was performed using JMP (SAS Institute). Venn diagrams where formed by selecting genes called increasing or decreasing by MAS 5 with a fold change greater then 1.7 compared to IAH. These groups were further restricted by excluding genes with a magnitude fold change >1.2 induced by the other treatments.
# as §4
# ERK1/2 = assay: Western analysis of cultured mammary glands: MAP kinase pathway; assay type: cell-based, mice; settings: western blot
# Procedure: as §1, §2
molecule,measurement,setting,value
estrogen,increase of galanin expression,[1],about 4000 fold
"GALP (1-60): 60 amino acid neuropeptide, galanin-like peptide, binds GalR1 and GalR2 (APAHRGRGGWTLNSAGYLLGPVLHLPQMGDQDGKRETALEILDLWKAIDGLPYSHPPQPS; Galanin-like peptide; UniProt Q9UBC7 25-84, looked up)",affinity for GalR1,GalR1,poor affinity
B1,mobility of Akt,Akt,decreased mobility
same,phosphorylation of T308 and S473 residues of Akt,Akt,did not increase
same,total Akt,Akt,no increase
same,phosphorylated STAT5 / activation of the JAK/STAT pathway,STAT5,dramatic increase
same,total STAT5a,STAT5,increase
same,number of lobuloalveoli per gland,"[2]; IAH medium, PRL 1 μg/ml with or without 100 nM galanin",8.6±2.1
same,ductal or lobuloalveolar development by quantitative morphology and histology,"[2]; added to IAH medium, 100 nM galanin or ovine PRL 1 μg/ml, 6 days culture",lobuloalveolar development was observed
same,lactation and pup survival,[3]; 0.6 or 1.2 μg PRL per 24 hours by mini osmotic pump throughout pregnancy,restored lactation and allowed pup survival
same,lobuloalveolar density (mammary gland whole mounts),"[3]; PRL throughout pregnancy, 1st day post-partum",partial rescue
same,Keratin18 levels,"[3]; PRL throughout pregnancy, quantitative RT-PCR",unchanged
same,"milk protein gene expression (WDMN1, β-casein, WAP), lobuloalveolar differentiation","[3]; PRL throughout pregnancy, quantitative RT-PCR, 1st day post-partum",did not even partially rescue
same,"milk protein synthesis (WAP, α and β casein)",[4],synthesised
same,PDGFRA expression,[5]; cultured mammary glands,prevents galanin from reducing
same,regulation of galanin or its receptors,[5]; cultured mammary glands,did not regulate
same,genes regulated that are not regulated by the other hormone (unique transcriptional influence),[5]; fold change 1.7 versus IAH,160 genes
same,genes that changed expression in response to all three treatments,"[5]; fold change 1.7 versus IAH, 40% of all regulated genes",136 genes
same,genes regulated regardless of the presence of the other hormone,[5]; fold change greater than 1.7 versus IAH,154 genes
same,genes regulated by the other hormone whose regulation is antagonised,"[5]; prolactin against galanin's unique genes, galanin against 160 prolactin regulated genes",30/31
same,phosphorylated ERK / sustained activation of the MAP kinase pathway,ERK1/2,dramatically increased
same,total ERK1/2,ERK1/2,decreased
